This is an account of results in US20250333486A1, “Anti-HSP90 alpha antibody and uses thereof” (NATIONAL HEALTH RESEARCH INSTITUTES, priority 2021, published 2025).

Entries after “also recorded” stand apart in the source; their conditions may differ.

Series [1] concerns Panc 02 plus EndoMT cell grafts. Put plainly: Prophylactic efficacy in desmoplastic mouse PDAC transplant model. The series is classed as in vivo. To be noted: 5 mg/kg IV, 8 doses at 3-day intervals from Day-4. On the procedure: (§1) Mouse experiments were performed with the permission of the Institutional Animal Care and Use Committee of National Health Research Institutes (NHRI-IACUC-106031-A, 109022-M2-S02, and 109196-A). To establish a desmoplastic tumor transplant model, C57BL/6 mice at 12 weeks of age were subcutaneously inoculated with a mix of Panc 02 cells and EndoMT-derived CAFs (i.e. OPN-treated 3B-11 cells). See Fan C S, Chen L L, Hsu T A, et al. Endothelial-mesenchymal transition harnesses HSP90α-secreting M2-macrophages to exacerbate pancreatic ductal adenocarcinoma. J Hematol Oncol 2019;12:138; and Chua K V, Fan C S, Chen L L, Chen C C, Hsieh S C, Huang T S. Octyl gallate induces pancreatic ductal adenocarcinoma cell apoptosis and suppresses endothelial-mesenchymal transition-promoted M2-macrophages, HSP90α secretion, and tumor growth. Cells 2020;9(1):91. Sizes of developing tumors were superficially measured with a Vernier caliper, and tumor volumes were calculated with the formula ½×length×width^2. Real tumors were weighed when mice were sacrificed. To establish a desmoplastic tumor transplant model in humanized mice, NOD-SCID IL2R^null (ASID) mice transplanted with human hematopoietic stem cells (hHSC) were subcutaneously inoculated with a mix of PANC-1 cells and OPN-treated HUVECs. The employed hHSC-transplanted ASID mice were produced from the National Laboratory Animal Center (Taipei, Taiwan) and all contained human CD45^+ cell levels more than 38% of total lymphocytes. To establish an M2-macrophage-exacerbated mouse PDAC model, C57BL/6 mice were subcutaneously inoculated with a mix of Panc 02 cells and rHSP90α-treated BMDMs. Additionally, LSL-KrasG12D/Pdx1-Cre transgenic mice were adopted as a spontaneously PDAC-developing mouse model to evaluate the therapeutic efficacy of HH01 antibody. LSL-KrasG12D and Pdx1-Cre breeder mice were obtained from the Mouse Models of Human Cancers Consortium Repository of the National Cancer Institute (Frederick, Maryland, USA). LSL-KrasG12D mice were crossed with Pdx1-Cre mice to generate LSL-KrasG12D/Pdx1-Cre mice.
For assaying the HSP90α-binding activities of the prepared antibodies, 96-well plates were coated with 12.5 ng/ml of rHSP90α in the capture buffer (BioLegend, San Diego, CA, USA) by overnight incubation at 4° C. The coated plates were washed twice with PBST and then blocked with PBST plus 3% bovine serum albumin (BSA). […] The reactions were stopped by the addition of 0.5 M H2SO4, and OD450 values were measured by an Infinite M200 microplate reader (TECAN, Männedorf, Switzerland). Additionally, the immunoglobulin (IgG) isotype characterization of anti-HSP90α antibodies was performed by using the Mouse Ig Isotyping ELISA Ready-Set-Go!™ Kit (eBioscience™, Thermo Fisher Scientific, Waltham, MA, USA). […]

Another series deals with PANC-1 cells. Put plainly: Transwell invasion assay, rHSP90α-induced PANC-1 invasion. The series is classed as cell-based, human. To be noted: 15 μg/ml rHSP90α plus 10 μg/ml antibody. The protocol: In a 37° C. and 5% CO2 humidified incubator, cancer cells were subjected to serum starvation in 0.5% FBS-containing medium for 16 h, and then added […] After another 24 h, the treated cells were harvested as aliquots (1×10^5 cells per aliquot) in 0.5% FBS-containing culture medium, and then each aliquot was seeded into a top chamber of Transwell inserts pre-coated with 5-fold diluted Matrigel (BD Biosciences). Cells were allowed 16 h to invade through the Matrigel toward the bottom chambers containing culture medium plus 10% FBS. The filters of the Transwell inserts were then fixed and stained with Giemsa. Invasive cells on the lower side of filters were photographed using the Axiovert S100/AxioCam HR microscope system (Carl Zeiss, Oberkochen, Germany) and further quantified by the Image-Pro Plus software (Media Cybernetics, Inc., Silver Spring, MD, USA).

Series [2] deals with ARPE-19 retinal pigmented epithelial cells. Kind of series: Retinal cell toxicity assay (MTS). The series is classed as cell-based, human. To be noted: 72 h, up to 594.3 nM (100 μg/ml). On the procedure:
ARPE-19 cells were seeded onto 96-well plates at a density of 4000 cells per well, and then treated in triplicate with various concentrations of 17-AAG or anti-HSP90α antibody HH01 for 72 h. The 3-(4,5-dimethylthiazol-2-yl)-5-(3-carboxymethoxyphenyl)-2-(4-sulfophenyl)-2H-tetrazolium (MTS; Sigma-Aldrich) assay was employed and OD490 was measured to evaluate cell viability upon each treatment.

In series [3] the test system is SW620, PANC-1, and Panc 02 cells. Put plainly: Cell spheroid-forming assay, rHSP90α-induced gain-of-stemness. The series is classed as cell-based, human and mouse. The note with it: conclusion statement. On the procedure: One thousand cancer cells were seeded onto each well of 24-well plates pre-coated with a 4-mm thick layer of 0.5% agarose. After incubation 24 h with serum-free medium at 37° C. plus a 5% CO2 humidified atmosphere, cells were added with PBS or 15 μg/ml of rHSP90α in the absence or presence of 10 μg/ml of control IgG or the tested anti-HSP90α antibody. The incubation was kept for 10-14 days with supplements of some fresh serum-free medium every 3 days. Finally, the cell spheroids characterized by tight, non-adherent, and >100 μm in diameter were photographed and counted under an Olympus IX 71 inverted microscope (Center Valley, PA, USA). The spheroid formation % was calculated by the formula: (number of cell spheroids/1000)×100%.

Series [4] deals with K-Ras^G12D-induced PDAC in LSL-KrasG12D/Pdx1-Cre mice. Put plainly: Therapeutic efficacy in K-Ras^G12D-induced desmoplastic mouse PDAC model. The series is classed as in vivo. On the procedure: as §1
For assaying the HSP90α-binding activities of the prepared antibodies, 96-well plates were coated with 12.5 ng/ml of rHSP90α in the capture buffer (BioLegend, San Diego, CA, USA) by overnight incubation at 4° C. The coated plates were washed twice with PBST and then blocked with PBST plus 3% bovine serum albumin (BSA). The prepared antibodies were applied and incubated 2 h at room temperature. After three washes with PBST, horseradish peroxidase-conjugated secondary antibody was added and incubated at 37° C. for another 1 h. After three washes, 0.3 mg/ml of 3,3′,5,5′-tetramethylbenzidine in 0.015% H2O2 was added into each well and incubated in the dark at room temperature for 10 min. The reactions were stopped by the addition of 0.5 M H2SO4, and OD450 values were measured by an Infinite M200 microplate reader (TECAN, Männedorf, Switzerland). Additionally, the immunoglobulin (IgG) isotype characterization of anti-HSP90α antibodies was performed by using the Mouse Ig Isotyping ELISA Ready-Set-Go!™ Kit (eBioscience™, Thermo Fisher Scientific, Waltham, MA, USA). The ELISA protocol was also used to assay the secreted HSP90α levels of mouse serum samples as described previously. See Chen J S, Hsu Y M, Chen C C, Chen L L, Lee C C, Huang T S. Secreted heat shock protein 90α induces colorectal cancer cell invasion through CD91/LRP-1 and NF-κB-mediated integrin αV expression. J Biol Chem 2010;285(33):25458-66.
Mouse paraffin-embedded tissue sections were deparaffinized by xylene and rehydrated by a series of ethanol dilutions. Masson trichrome staining was performed using a Trichrome Stain Kit (ScyTek Laboratories Inc., Utah, USA) according to the manufacturer's protocol. The stained sections were dehydrated in graded ethanol solutions and xylene, and finally mounted with mounting solution overnight in the dark at room temperature. […]

The next series is described as follows: Solubility of antibody. The series is classed as physicochemical.

B1: HH01: humanized anti-HSP90α IgG1 antibody, mutant of Clone-2-chimera; VH SEQ ID NO: 12, VL SEQ ID NO: 17 (antibody, V domains shown)
VH: EVQLVESGGGLVQPGGSLRLSCAASGFTFKTYAMNWVRQAPGQGLEWVARIRSKSRNYATYYADSVKDRFTISRDDSKNQFYLQMNNLRTEDTAVYYCVVGGSGFDYWGQGTTLTVSS
VL: DVVMTQTPLSLPVSLGDQASISCRSSQSIVHSNGNTYLEWYLQKPGQSPQLLIYKVSNRFSGVPDRFSGSGSGTDFTLTISSVEAEDLGVYYCFQGSHVPWTFGGGTKLEIK
modifications: Heavy chain variable region; Light chain variable region
As to B1, in series [1], the “kinetics of the tumor growth” value is “potently suppressed”, the “serum HSP90α levels” value is “significantly reduced”, the “tumor desmoplasia (Masson trichrome)” value is given as “significantly prevented” and the “tumor sizes (weights) on Day-30” value is listed as “significantly repressed”. In addition, the “suppression of rHSP90α-induced invasiveness of PANC-1 cells” value in the series with PANC-1 cells is “superior to Clone-2-hB, Clone-2-hC, and their parental Clone-2”. The “cytotoxicity in ARPE-19 cells” value in series [2] is “did not cause any obvious cytotoxicity; also recorded: not cytotoxic”. Besides, the “spheroid-forming activities of pancreatic adenocarcinoma and colorectal cancer cell lines” value in series [3] was “potently suppresses”. The “mice still surviving on Day-450” value in series [4] (5 mg/kg IV, 10-dose schedule from 6 months of age) is on record as 7 of 9. In series [4] (5 mg/kg IV, 10-dose schedule, Kaplan-Meier, end point Day-450), this molecule yielded a median survival time of over 450 days. In series [4] (Masson trichrome staining), the liver desmoplasia entry is on record as “significant improvement”. Besides, the “elevation of serum HSP90α levels” value in series [4] (after vs. before treatments) is recorded as “effectively abolished”. Besides, the pancreatic desmoplasia result in series [4] (mice still surviving on Day-450) was “drastically recovered”. Moreover, in series [4] (one mouse per group), the “tumor nodules on livers” value is “fewer nodules than IgG-treated mouse”. The water solubility result in the series “Solubility of antibody” is recorded as “quite water-soluble”. For the same molecule, the “solubility in PBS” value in the series “Solubility of antibody” (PBS) was over 10000 µg/mL.
